Assay results from paper PMC9080154.

Molecular target: Staphylococcal enterotoxin B (SEB) (Staphylococcus aureus, UniProt P01552 28-266)
Sequence (P01552 28-266): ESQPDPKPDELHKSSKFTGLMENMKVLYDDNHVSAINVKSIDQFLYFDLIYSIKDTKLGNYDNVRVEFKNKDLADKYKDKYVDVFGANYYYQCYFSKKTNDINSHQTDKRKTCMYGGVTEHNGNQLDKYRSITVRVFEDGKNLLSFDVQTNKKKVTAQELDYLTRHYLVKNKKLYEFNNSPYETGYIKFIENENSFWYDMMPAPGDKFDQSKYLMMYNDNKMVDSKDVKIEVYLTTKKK

B1: SEB aptamer (ssDNA)
DNA: GGTATTGAGGGTCGCATCCACTGGTCGTTGTTGTCTGTTGTCTGTTATGTTGTTTCGTGATGGCTCTAACTCTCCTCT
binding result: binds

B2: SEB aptamer1 (6-FAM) (ssDNA)
DNA: GGTATTGAGGGTCGCATCCACTGGTCGTTGTTGTCTGTTGTCTGTTATGTTGTTTCGTGATGGCTCTAACTCTCCTCT
binding result: binds
